This test concerns the target T1, SARS-CoV M protein (SARS-CoV), P59596.
T1 chain: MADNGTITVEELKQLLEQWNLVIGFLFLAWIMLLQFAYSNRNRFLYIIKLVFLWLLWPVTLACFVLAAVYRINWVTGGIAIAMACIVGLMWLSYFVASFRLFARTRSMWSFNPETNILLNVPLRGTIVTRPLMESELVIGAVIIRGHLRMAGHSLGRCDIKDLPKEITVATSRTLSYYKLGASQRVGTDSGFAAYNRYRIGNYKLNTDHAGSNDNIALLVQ
As to the kind of experiment: cryo-EM structure. The conditions noted are these: remark: other sources report otherwise.

B1: SARS-CoV M protein, P59596 1-221 (natural protein)
chain: MADNGTITVEELKQLLEQWNLVIGFLFLAWIMLLQFAYSNRNRFLYIIKLVFLWLLWPVTLACFVLAAVYRINWVTGGIAIAMACIVGLMWLSYFVASFRLFARTRSMWSFNPETNILLNVPLRGTIVTRPLMESELVIGAVIIRGHLRMAGHSLGRCDIKDLPKEITVATSRTLSYYKLGASQRVGTDSGFAAYNRYRIGNYKLNTDHAGSNDNIALLVQ
As to B1, the stoichiometry N was determined as 2.

For the origin of these results see PMC12644734.
